From paper PMC3961267
pKd: −log10 of the molar value.

Tested on: P266L T7 RNA polymerase (bacteriophage T7)
Test: fluorescence anisotropy
Settings: Buffer A: 50 mM Tris-acetate, 50 mM sodium acetate, 10 mM magnesium acetate, 5 mM DTT, 25 C; pH not stated

TAMRA-labeled T7 consensus promoter DNA
pKd: 8.44
